Reference: patent publication US20070122405A1 (Human Genome Sciences, published 2007)

Assays:
[1] = target: T1, Human G-protein Chemokine Receptor (CCR5) HDGNR10 (human, UniProt P51681 1-352); assay: cell-based or functional assay
[2] = target: T1, Human G-protein Chemokine Receptor …; assay: cell-based or functional assay; remark: listed apart in the source
[3] = target: T1, Human G-protein Chemokine Receptor …; assay: cell-based or functional assay; remark: listed apart in the source
[4] = target: T1, Human G-protein Chemokine Receptor …; assay: cell-based or functional assay; remark: listed apart in the source
[5] = target: T1, Human G-protein Chemokine Receptor …; assay: cell-based or functional assay; remark: listed apart in the source
[6] = target: T1, Human G-protein Chemokine Receptor …; assay: cell-based or functional assay; remark: listed apart in the source
[7] = target: T1, Human G-protein Chemokine Receptor …; assay: saturation binding of Eu-labelled antibody to CEM.NKR-CCR5 transfected cells, time resolved fluorometry
Description: (§1) The 43E2 and 43E2/AK38181 antibodies were labeled with Europium (Eu) using Dissociation-Enhanced Lanthanide Fluorescence Immunoassay (DELFIA™) Eu-labeling kit (Catalog #1244-302, Perkin Elmer Life Sciences, Boston, Mass.) following the manufacturer's instructions. The labeling agent is the Eu-chelate of N1-(p-isothiocynateobenzyl) diethylenetriamine N1, N2, N3, N3-tetraacetic acid (DTTA). The DTTA group forms a stable complex with Eu³⁺ and the isothiocynate group reacts with primary amino groups on the antibodies at alkaline pH to form a stable, covalent thiourea bond. […] The Eu³⁺ content and protein concentration of each labeled antibody was determined.
(§2) The Eu-43E2 and Eu-43E2/AK38181 saturation binding assays were performed in 96 well plates, with 0.3-0.5 million CEM.NKR-CCR5 transfected cells per well, and various concentrations of Eu-43E2 and Eu-43E2/AK38181 in the absence or presence of 100-fold excess of unlabeled CCR5mAb004 for 1 hour at room temperature (RT). […] The fluorescence emitted from the released Eu was determined by time resolved fluorometry (VICTOR 1420 DELFIA™ fluorometer, Wallac Oy, Turku, Finland). The data were analyzed on Prizm software (GraphPad Software, San Diego, Calif.) to determine the equilibrium dissociation constant (Kd).

[8] = target: T1, Human G-protein Chemokine Receptor …; assay: saturation binding of Eu-labelled antibodies to CEM.NKR-CCR5 transfected cells
Description: as §1, §2

T1 sequence (P51681 whole entry): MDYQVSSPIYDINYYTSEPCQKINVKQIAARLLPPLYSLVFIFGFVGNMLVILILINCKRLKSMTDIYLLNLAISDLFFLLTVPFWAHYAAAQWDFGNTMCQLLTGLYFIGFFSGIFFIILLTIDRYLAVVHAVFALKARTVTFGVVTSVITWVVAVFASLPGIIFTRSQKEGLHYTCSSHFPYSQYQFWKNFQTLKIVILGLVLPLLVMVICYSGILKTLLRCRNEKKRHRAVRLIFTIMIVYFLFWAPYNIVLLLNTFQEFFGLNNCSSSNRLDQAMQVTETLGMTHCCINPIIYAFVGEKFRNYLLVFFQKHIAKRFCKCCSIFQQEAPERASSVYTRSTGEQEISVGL

Row | Binder | IC50 of entry of HIV-1-luciferase pseudotyped with env of 92BR025 (clade B) into U87/CD4/CCR5 cells [2] [nM] | IC50 of entry of HIV-1-luciferase pseudotyped with env of 92RW009 (clade A) into U87/CD4/CCR5 cells [2] [nM] | IC50 of entry of HIV-1-luciferase pseudotyped with env of 92TH001 (clade E) into U87/CD4/CCR5 cells [2] [nM] | IC50 of entry of HIV-1-luciferase pseudotyped with env of 92UG005 (clade D) into U87/CD4/CCR5 cells [2] [nM] | IC50 of entry of HIV-1-luciferase pseudotyped with env of 93IN101 (clade C) into U87/CD4/CCR5 cells [2] [nM] | IC50 of entry of HIV-1-luciferase pseudotyped with env of 301657 (clade B) into U87/CD4/CCR5 cells [2] [nM] | IC50 of entry of HIV-1-luciferase pseudotyped with env of 301714 (clade B) into U87/CD4/CCR5 cells [2] [nM] | IC50 of entry of HIV-1-luciferase pseudotyped with env of 302056 (clade B) into U87/CD4/CCR5 cells [2] [nM] | IC50 of entry of HIV-1-luciferase pseudotyped with env of 'Enfuvirtide Resistant' (B/Enfuvirtide Resistant) into U87/CD4/CCR5 cells [2] [nM] | IC50 of entry of HIV-1-luciferase pseudotyped with env of ASJM108 (clade B) into U87/CD4/CCR5 cells [2] [nM] | IC50 of entry of HIV-1-luciferase pseudotyped with env of ASM80 (clade B) into U87/CD4/CCR5 cells [2] [nM] | IC50 of entry of HIV-1-luciferase pseudotyped with env of DU151 (clade C) into U87/CD4/CCR5 cells [2] [nM] | IC50 of entry of HIV-1-luciferase pseudotyped with env of JRCSFSDM DIM (B/Enfuvirtide Resistant) into U87/CD4/CCR5 cells [2] [nM] | IC50 of entry of HIV-1-luciferase pseudotyped with env of JRFL (clade B) into U87/CD4/CCR5 cells [2] [nM] | IC50 of entry of HIV-1-luciferase pseudotyped with env of RU570 (clade G) into U87/CD4/CCR5 cells [2] [nM] | Mean IC50 over the panel of HIV-1-luciferase pseudotyped viruses, entry into U87/CD4/CCR5 cells [2] [nM] | Median IC50 over the panel of HIV-1-luciferase pseudotyped viruses, entry into U87/CD4/CCR5 cells [2] [nM] | Median IC50, inhibition of HIV-1-luciferase pseudotyped viruses [3] [nM] | IC50 (read off the curve), HIV-1-JRFL entry, Donor 1 target cells [4] [nM] | IC50 (read off the curve), HIV-1-JRFL entry, Donor 2 target cells [5] [nM] | other results
1 | 43E2, fully human IgG4 CCR5 monoclonal antibody (secreted by cell line NS0mAb43E2) (antibody, V domains shown, also called Eu-43E2) VH: QVQLVESGGGVVQPGRSLRLSCAASGFTLSGYGMHWVRQAPGKGLEWVSLISYDGSNKYYADSVKGRFTISRDDSKNTLYLRMNSLRAEDTAVYYCARGRNDFWSGYYTAGMDVWGQGTTVTVSS VL: not shown | 5.6 | 3.2 | 1.2 | 2.4 | 1 | 22.5 | 35.9 | 8 | 8.5 | 8.7 | 7.7 | 2.2 | 9.7 | 5.5 | 5.2 | 8.4 | 5.8 | 5.8 | ~1000 | ~800 | percent of HIV-1-JRFL entry blocked at the highest concentrations tested (up to 2000 nM) [1]: ≤ 60%; IC50 (read off the curve), HIV-1-JRFL entry, Donor 3 target cells [6]: ~800 nM; Kd [7]: 2.36 nM
2 | 43E2/AK38181, fully human IgG4 CCR5 monoclonal antibody (secreted by cell line NS0mAb43E2/AK38181) (antibody, V domains shown, also called Eu-43E2/AK38181) VH: QVQLVESGGGVVQPGRSLRLSCAASGFTLSGYGMHWVRQAPGKGLEWVSLISYDGSNKYYADSVKGRFTISRDDSKNTLYLRMNSLRAEDTAVYYCARGRNDFWSGYYTAGMDVWGQGTTVTVSS VL: DIQMTQSPSSLSASVGDRVTITCQASQGIRKYLNWYQQKPGKVPKLLIYDASNLETGVPSRFSGSGSGTDFTFAISSLQPEDTATYYCQQYDDFPFTFGQGTRLEIKR | 1 | 1.1 | 0.6 | 1.4 | 1.1 | 4.4 | 5 | 2.3 | 2.5 | 2.2 | 2 | 1.3 | 2.8 | 2.2 | 1.7 | 2.1 | 1.7 | 1.7 | ~100 | ~60 | fold lower IC50 than 43E2, HIV-1-JRFL entry into activated human T-cells [1]: ≥ 10 fold; fold lower IC50 than 43E2, inhibition of HIV-1 entry into U87/CD4/CCR5 cells [1]: ~3 fold; fold lower IC90 than 43E2, inhibition of HIV-1 entry into U87/CD4/CCR5 cells [1]: ~10 fold; IC50 (read off the curve), HIV-1-JRFL entry, Donor 3 target cells [6]: ~20 nM; fold difference in binding affinity against 43E2 [8]: ~2 fold; Kd [7]: 1.18 nM
